Where no end group is shown, it is not given here. [ ]: non-standard residue; d: D form. Lys(N3) = [N-]=[N+]=NCCCC[C@H](N)C(=O)O

What all share (test): counting of free and bound DNA origami nanostructures in electron micrographs (TEM); peptides displayed on DNA origamis A and B through oligonucleotide tags; gel-purified An and Bn mixed, total monomer concentrations 0.25-2.4 nM; background of random coincidences subtracted; Kd from the slope of a linear fit through the origin; additional systematic error of approximately 20%

Data set [1] deals with the molecule itself.
Data set [2] deals with T1, B3: DNA origami B decorated with three β-CC-Di-KE (azidonorleucine (Z) at the N-terminus, joined to oligonucleotide tag β, which is hybridised to a handle of DNA origami B).
T1 chain: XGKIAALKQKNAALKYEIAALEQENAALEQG
The settings on record: both partners purified.

Data set [3] has as its target T2, B1: DNA origami B decorated with one β-CC-Di-KE (azidonorleucine (Z) at the N-terminus, joined to oligonucleotide tag β, which is hybridised to a handle of DNA origami B).
T2 chain: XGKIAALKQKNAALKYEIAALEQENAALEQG
Particulars: both partners purified.

The target in data set [4] is T3, B2: DNA origami B decorated with two β-CC-Di-KE (azidonorleucine (Z) at the N-terminus, joined to oligonucleotide tag β, which is hybridised to a handle of DNA origami B).
T3 chain: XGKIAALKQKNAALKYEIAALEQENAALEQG
Particulars: both partners purified.

GEIAALEQENAALEQKIAALKWKNAALKQG[Lys(N3)]-NH2 (other, also: tag α hybridised to handle of DNA origami A, three copies per origami) [A3: DNA origami A decorated with three CC-Di-EK-α]: the Kd (usually the equilibrium constant for the complex coming apart) worked out at 24 ± 4 nM in data set [1] and 0.7 ± 0.1 nM in data set [2].

In turn, GEIAALEQENAALEQKIAALKWKNAALKQG[Lys(N3)]-NH2 (other, also: tag α hybridised to handle of DNA origami A, one copy per origami) [A1: DNA origami A decorated with one CC-Di-EK-α] displayed a Kd in data set [3] of 130 ± 20 nM.

B1: A2: DNA origami A decorated with two CC-Di-EK-α (other)
chain: GEIAALEQENAALEQKIAALKWKNAALKQG[Lys(N3)]-NH2
modifications: not fully specified; also: tag α hybridised to handle of DNA origami A, two copies per origami
As for B1, the Kd in data set [4] stood at 25 ± 3 nM.

The values above are taken from PMC6764022 (ACS Nano, 2019).
